# According to patent US20250076311A1 (Chugai, published 2025):
# Residue numbers refer to the chain shown, from its start. In names and notes the source's numbering stands.
# T1: human FcγRIIaR extracellular domain, His-tagged (human, UniProt P12318 34-217)
# T1 construct: also called human FcgRIIaR; FcγRIIa type R
# T1 chain: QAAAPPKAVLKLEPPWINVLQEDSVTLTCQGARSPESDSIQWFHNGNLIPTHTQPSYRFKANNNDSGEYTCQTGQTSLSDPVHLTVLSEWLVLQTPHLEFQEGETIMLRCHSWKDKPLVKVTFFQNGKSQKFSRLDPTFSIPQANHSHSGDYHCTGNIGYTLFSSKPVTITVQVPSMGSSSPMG
# T2: human FcγRIIb extracellular domain, His-tagged (human, UniProt P31994 43-217)
# T2 construct: also called human FcgRIIb
# T2 sequence: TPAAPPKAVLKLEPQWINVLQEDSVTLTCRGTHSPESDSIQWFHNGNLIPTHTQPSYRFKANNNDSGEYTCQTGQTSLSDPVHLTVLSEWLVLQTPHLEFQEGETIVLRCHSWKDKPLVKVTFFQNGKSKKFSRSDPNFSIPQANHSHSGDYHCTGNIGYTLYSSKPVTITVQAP
# T3: human FcγRIIaH extracellular domain, His-tagged (human, UniProt P12318 34-217)
# T3 construct: also called human FcgRIIaH; FcγRIIa type H
# T3 sequence: T1 chain with R134H
# T4: cynomolgus monkey FcγRIIIaS extracellular domain with C-terminal His-tag (cynomolgus monkey, UniProt Q8SPW2 21-206 at identity 1.00))
# T4 construct: also called cyno FcγRIIIaS; FcgRIIIaS
# T4 chain: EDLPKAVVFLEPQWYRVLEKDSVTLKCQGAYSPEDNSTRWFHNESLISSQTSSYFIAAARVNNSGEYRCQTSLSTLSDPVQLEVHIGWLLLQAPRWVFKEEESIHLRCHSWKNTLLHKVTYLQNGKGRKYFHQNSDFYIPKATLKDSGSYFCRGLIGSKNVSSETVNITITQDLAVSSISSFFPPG
# B1: GpH7-B3 A327N / GpL16-k0 (antibody, human IgG1, kappa)
# heavy: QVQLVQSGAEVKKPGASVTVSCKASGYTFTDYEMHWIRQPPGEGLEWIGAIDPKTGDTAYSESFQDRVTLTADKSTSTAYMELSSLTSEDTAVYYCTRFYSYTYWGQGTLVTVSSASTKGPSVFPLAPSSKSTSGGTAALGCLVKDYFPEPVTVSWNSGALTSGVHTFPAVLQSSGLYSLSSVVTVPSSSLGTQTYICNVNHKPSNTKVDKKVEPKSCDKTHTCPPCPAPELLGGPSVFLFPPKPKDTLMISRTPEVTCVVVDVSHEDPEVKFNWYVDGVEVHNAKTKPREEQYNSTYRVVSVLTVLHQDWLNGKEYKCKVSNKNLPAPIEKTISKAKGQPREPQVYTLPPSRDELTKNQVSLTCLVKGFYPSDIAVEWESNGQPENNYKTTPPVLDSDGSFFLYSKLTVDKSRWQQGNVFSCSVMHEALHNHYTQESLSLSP
# light: DIVMTQSPLSLPVTPGEPASISCQASESLVHSNRNTYLHWYLQKPGQSPQLLIYKVSNRFSGVPDRFSGSGSGTDFTLKISRVEAEDVGVYYCSQNTHVPPTFGQGTKVEIERTVAAPSVFIFPPSDEQLKSGTASVVCLLNNFYPREAKVQWKVDNALQSGNSQESVTEQDSKDSTYSLSSTLTLSKADYEKHKVYACEVTHQGLSSPVTKSFNRGEC
# notes: also called B3 variant A327N
# B2: GpH7-B3 G236S / GpL16-k0 (antibody, human IgG1, kappa)
# heavy: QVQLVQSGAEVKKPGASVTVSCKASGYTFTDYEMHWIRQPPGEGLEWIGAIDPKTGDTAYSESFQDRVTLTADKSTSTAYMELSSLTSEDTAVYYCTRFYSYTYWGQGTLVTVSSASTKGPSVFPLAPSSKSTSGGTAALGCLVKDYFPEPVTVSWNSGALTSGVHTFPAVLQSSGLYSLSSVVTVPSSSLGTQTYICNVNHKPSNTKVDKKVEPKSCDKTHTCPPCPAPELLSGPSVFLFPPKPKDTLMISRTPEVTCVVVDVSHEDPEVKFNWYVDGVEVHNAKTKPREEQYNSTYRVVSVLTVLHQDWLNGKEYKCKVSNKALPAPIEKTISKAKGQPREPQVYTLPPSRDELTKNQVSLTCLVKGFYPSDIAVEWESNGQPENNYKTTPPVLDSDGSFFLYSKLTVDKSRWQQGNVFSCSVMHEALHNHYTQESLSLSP
# light: B1 light
# notes: also called B3 variant G236S
# B3: GpH7-B3 H268D / GpL16-k0 (antibody, human IgG1, kappa)
# heavy: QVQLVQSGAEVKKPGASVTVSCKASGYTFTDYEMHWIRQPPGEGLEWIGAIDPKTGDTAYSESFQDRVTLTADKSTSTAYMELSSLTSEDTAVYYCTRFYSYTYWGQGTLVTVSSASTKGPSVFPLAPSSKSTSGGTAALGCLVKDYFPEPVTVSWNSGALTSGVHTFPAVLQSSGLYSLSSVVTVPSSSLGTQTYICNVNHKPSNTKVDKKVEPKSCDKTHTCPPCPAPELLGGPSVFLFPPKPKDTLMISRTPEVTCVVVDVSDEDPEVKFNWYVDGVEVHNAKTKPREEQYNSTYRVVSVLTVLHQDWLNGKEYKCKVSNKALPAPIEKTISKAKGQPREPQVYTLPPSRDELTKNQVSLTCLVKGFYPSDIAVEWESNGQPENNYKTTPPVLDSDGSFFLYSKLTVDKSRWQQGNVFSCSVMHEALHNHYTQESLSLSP
# light: B1 light
# notes: also called B3 variant H268D
# B4: GpH7-B3 P271D / GpL16-k0 (antibody, human IgG1, kappa)
# heavy: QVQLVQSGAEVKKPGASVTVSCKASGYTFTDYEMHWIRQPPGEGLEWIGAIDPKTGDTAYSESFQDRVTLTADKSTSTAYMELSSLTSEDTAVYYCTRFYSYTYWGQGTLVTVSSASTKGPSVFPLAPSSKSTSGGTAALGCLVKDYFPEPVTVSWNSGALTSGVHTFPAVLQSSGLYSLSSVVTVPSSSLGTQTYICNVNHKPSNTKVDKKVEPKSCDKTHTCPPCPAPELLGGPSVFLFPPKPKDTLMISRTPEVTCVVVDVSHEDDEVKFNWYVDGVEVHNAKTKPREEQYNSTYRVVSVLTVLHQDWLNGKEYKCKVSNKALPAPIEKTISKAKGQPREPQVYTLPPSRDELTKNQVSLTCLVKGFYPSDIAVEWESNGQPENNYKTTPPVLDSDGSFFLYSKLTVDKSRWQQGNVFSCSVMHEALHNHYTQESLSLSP
# light: B1 light
# notes: also called B3 variant P271D
# B5: GpH7-B3 G236D / GpL16-k0 (antibody, human IgG1, kappa)
# heavy: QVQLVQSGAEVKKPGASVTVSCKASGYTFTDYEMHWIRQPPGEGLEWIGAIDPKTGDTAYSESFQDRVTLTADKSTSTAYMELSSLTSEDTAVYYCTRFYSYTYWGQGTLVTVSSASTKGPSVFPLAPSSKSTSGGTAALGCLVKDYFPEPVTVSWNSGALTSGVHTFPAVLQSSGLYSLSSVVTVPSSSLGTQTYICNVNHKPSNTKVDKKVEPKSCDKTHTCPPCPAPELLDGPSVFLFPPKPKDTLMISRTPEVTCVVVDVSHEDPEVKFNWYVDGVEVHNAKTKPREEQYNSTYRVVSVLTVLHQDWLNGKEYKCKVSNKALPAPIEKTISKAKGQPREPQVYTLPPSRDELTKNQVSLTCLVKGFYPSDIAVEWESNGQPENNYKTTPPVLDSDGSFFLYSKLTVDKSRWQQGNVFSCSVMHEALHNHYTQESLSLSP
# light: B1 light
# notes: also called B3 variant G236D
# B6: GpH7-B3 G236E / GpL16-k0 (antibody, human IgG1, kappa)
# heavy: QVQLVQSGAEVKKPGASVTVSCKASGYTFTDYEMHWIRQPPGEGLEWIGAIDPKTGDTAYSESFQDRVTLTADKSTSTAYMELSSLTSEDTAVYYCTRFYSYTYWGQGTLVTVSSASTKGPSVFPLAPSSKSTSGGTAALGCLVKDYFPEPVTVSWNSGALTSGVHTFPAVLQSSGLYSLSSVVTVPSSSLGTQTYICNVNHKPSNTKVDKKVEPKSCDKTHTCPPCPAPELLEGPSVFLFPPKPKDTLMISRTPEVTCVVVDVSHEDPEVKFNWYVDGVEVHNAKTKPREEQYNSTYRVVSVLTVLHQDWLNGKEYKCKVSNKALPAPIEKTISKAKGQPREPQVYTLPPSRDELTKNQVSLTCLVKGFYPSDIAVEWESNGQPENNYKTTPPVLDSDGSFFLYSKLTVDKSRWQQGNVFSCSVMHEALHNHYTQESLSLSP
# light: B1 light
# notes: also called B3 variant G236E
# B7: GpH7-B3 A330R / GpL16-k0 (antibody, human IgG1, kappa)
# heavy: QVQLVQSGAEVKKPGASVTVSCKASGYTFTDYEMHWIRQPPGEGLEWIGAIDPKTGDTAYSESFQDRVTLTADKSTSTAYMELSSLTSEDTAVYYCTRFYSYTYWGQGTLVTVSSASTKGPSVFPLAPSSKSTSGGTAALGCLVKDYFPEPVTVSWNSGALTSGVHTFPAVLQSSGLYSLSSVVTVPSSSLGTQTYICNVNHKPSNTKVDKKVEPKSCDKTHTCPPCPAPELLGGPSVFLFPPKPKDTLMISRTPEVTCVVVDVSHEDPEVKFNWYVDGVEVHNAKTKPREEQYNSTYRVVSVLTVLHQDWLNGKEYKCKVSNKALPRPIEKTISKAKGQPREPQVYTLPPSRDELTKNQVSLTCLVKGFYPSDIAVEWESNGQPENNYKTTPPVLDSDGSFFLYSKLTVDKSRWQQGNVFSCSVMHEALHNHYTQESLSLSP
# light: B1 light
# notes: also called B3 variant A330R
# B8: GpH7-B3 A330K / GpL16-k0 (antibody, human IgG1, kappa)
# heavy: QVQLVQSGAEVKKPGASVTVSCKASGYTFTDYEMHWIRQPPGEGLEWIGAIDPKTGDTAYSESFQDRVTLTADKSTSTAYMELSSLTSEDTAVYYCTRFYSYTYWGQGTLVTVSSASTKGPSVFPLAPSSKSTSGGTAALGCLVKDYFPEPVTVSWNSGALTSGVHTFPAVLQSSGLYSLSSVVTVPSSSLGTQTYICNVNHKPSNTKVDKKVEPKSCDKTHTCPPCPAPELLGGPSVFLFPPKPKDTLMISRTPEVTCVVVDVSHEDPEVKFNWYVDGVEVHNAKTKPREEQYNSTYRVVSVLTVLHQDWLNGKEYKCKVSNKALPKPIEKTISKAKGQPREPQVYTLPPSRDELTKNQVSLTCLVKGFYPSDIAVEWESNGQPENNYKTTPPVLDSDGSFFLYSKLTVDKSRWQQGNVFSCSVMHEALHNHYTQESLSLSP
# light: B1 light
# notes: also called B3 variant A330K
# B9: GpH7-B3 P271E / GpL16-k0 (antibody, human IgG1, kappa)
# heavy: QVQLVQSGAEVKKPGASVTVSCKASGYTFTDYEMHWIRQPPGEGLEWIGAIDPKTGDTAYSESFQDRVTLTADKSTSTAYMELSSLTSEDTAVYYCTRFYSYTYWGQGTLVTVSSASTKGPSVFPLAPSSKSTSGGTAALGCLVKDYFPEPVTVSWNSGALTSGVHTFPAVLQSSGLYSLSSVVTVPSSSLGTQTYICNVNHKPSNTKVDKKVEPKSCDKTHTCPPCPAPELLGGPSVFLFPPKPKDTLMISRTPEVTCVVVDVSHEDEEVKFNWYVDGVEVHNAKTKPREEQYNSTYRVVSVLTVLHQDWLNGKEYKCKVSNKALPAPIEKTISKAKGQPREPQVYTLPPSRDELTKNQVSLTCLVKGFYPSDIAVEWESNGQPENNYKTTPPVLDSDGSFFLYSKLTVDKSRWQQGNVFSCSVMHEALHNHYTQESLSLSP
# light: B1 light
# notes: also called B3 variant P271E
# B10: GpH7-B3 G236A / GpL16-k0 (antibody, human IgG1, kappa)
# heavy: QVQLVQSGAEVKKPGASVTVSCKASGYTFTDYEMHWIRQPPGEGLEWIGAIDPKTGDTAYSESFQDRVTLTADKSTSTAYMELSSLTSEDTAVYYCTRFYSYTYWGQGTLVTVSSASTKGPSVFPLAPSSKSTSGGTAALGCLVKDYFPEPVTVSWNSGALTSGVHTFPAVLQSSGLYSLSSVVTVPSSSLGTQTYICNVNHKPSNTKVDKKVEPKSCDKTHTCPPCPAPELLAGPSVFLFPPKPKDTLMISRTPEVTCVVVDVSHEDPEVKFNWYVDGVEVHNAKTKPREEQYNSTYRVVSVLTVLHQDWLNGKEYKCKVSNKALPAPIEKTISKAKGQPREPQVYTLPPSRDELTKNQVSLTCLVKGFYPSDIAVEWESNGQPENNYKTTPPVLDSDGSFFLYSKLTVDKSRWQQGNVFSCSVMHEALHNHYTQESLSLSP
# light: B1 light
# notes: also called B3 variant G236A
# B11: M103205H795-MY278 (heavy chain) with M103202L889-SK1 (light chain) (antibody, human IgG1, kappa, name in EU numbering)
# heavy: QVTLKESGPVLVKPTETLTLTCTVSGIDLSHDDISWVRQAPGKGLEWVGIISYAGSTYYASWAKGRLTISKDTSKNQVVLTMTNMDPVDTATYYCARGVPAYSHGGDLWGQGTLVTVSSASTKGPSVFPLAPSSKSTSGGTAALGCLVKDYFPEPVTVSWNSGALTSGVHTFPAVLQSSGLYSLSSVVTVPSSSLGTQTYICNVNHKPSNTKVDKKVEPKSCDKTHTCPPCPAPELLMGPSVFLFPPKPKDTLMISRTPEVTCVVVDVSDEDPEVKFNWYVDGVEVHNAKTKPREELYNSTYRVVSVLTVLHQDWLNGKEYKCKVSNKALPKPIEKTISKAKGQPREPQVYTLPPSREEMTKNQVSLTCLVKGFYPSDIAVEWESNGQPENNYKTTPPVLDSDGSFFLYSKLTVDKSRWQQGNVFSCSVMHEALHNHYTQKSLSLSP
# light: DIVMTQSPATLSLSPGERATLSCTSSQSVYHANWLSWFQQKPGQPPKLLIYWASTLAYGVPSRFSGSGSGTDFTLTISSLQPEDAATYYCAGGYGGGRYAFGQGTKVEIKRTVAAPSVFIFPPSDEQLKSGTASVVCLLNNFYPREAKVQWKVDNALQSGNSQESVTEQDSKDSTYSLSSTLTLSKADYEKHKVYACEVTHQGLSSPVTKSFNRGEC
# notes: Substitutions introduced into M103205H795-SG1; positions in EU numbering
# B12: M103205H795-MY142 (heavy chain) with M103202L889-SK1 (light chain) (antibody, human IgG1, kappa, name in EU numbering)
# heavy: B11 heavy with M238E, D270E, L297Q, K332A, P398M
# light: B11 light
# notes: as for B11
# B13: M103205H795-MY312 (heavy chain) with M103202L889-SK1 (light chain) (antibody, human IgG1, kappa, name in EU numbering)
# heavy: B11 heavy with M238T, D270E, L297Q, K328T, P398M
# light: B11 light
# notes: as for B11
# B14: M103205H795-MY311 (heavy chain) with M103202L889-SK1 (light chain) (antibody, human IgG1, kappa, name in EU numbering)
# heavy: B11 heavy with M238T, D270E
# light: B11 light
# notes: as for B11
# B15: M103205H795-MY310 (heavy chain) with M103202L889-SK1 (light chain) (antibody, human IgG1, kappa, name in EU numbering)
# heavy: B11 heavy with M238T, D270E, L297Q, K328T
# light: B11 light
# notes: as for B11
# B16: M103205H795-MY279 (heavy chain) with M103202L889-SK1 (light chain) (antibody, human IgG1, kappa, name in EU numbering)
# heavy: B11 heavy with M238H
# light: B11 light
# notes: as for B11
# B17: M103205H795-MY292 (heavy chain) with M103202L889-SK1 (light chain) (antibody, human IgG1, kappa, name in EU numbering)
# heavy: B11 heavy with M238G, G239Y, P398M
# light: B11 light
# notes: as for B11
# B18: M103205H795-MY293 (heavy chain) with M103202L889-SK1 (light chain) (antibody, human IgG1, kappa, name in EU numbering)
# heavy: B11 heavy with M238G, G239Y, D270E, P398K
# light: B11 light
# notes: as for B11
# B19: M103205H795-MY518/M103202L889-SK1 (antibody)
# heavy: B11 heavy with L237W, M238N, K328T
# light: B11 light
# notes: Fc variant of MS1032LO06-SG1; EU numbering
# Molecular target: T5, human FcγRIIIaV extracellular domain, His-tagged (human, UniProt P08637 17-208)
# T5 construct: also called human FcgRIIIaV
# T5 sequence (P08637 17-208 F176V): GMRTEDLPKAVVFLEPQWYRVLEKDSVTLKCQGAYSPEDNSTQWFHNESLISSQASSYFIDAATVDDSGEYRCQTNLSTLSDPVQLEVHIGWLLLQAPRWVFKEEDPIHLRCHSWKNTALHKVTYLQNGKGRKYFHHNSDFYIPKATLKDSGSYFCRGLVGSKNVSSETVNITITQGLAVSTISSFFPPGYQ
# Test: SPR (Biacore), 25C, FcgR bound per antibody captured
row,Binding to human FcgRs (parent B3 = 100),Binder
1,32,B1
2,33,B2
3,220,B3
4,85,B4
5,25,B5
6,33,B6
7,73,B7
8,86,B8
9,87,B9
10,65,B10

# Molecular target: T1, human FcγRIIaR extracellular domain, …
# Test: as above
row,Binding to human FcgRs (parent B3 = 100),Binder
1,48,B1
2,161,B2
3,142,B3
4,55,B4
5,91,B5
6,131,B6
7,123,B7
8,127,B8
9,51,B9
10,168,B10

# Molecular target: T2, human FcγRIIb extracellular domain, …
# Test: as above
row,Binding to human FcgRs (parent B3 = 100),Binder
1,87,B2
2,307,B3
3,110,B4
4,212,B5
5,117,B6
6,94,B10

# Molecular target: T3, human FcγRIIaH extracellular domain, …
# Test: as above
row,Binding to human FcgRs (parent B3 = 100),Binder
1,95,B1
2,147,B2
3,173,B3
4,109,B5
5,142,B6
6,116,B7
7,121,B8
8,90,B9
9,165,B10

# Molecular target: T4, cynomolgus monkey FcγRIIIaS …
# Test: SPR; KD of SG1 / KD of variant
# Method: (§1) The kinetic analysis of interactions between these antibodies and FcγR was carried out using BIACORE® T200 or BIACORE® 4000 (GE Healthcare). HBS-EP+ (GE Healthcare) was used as the running buffer, and the measurement temperature was set to 25° C. […] After the measurement, the antibody captured on the chip was washed off by allowing reaction with 10 mM glycine-HCl, pH1.5 and 25 mM NaOH so that the chip was regenerated and used repeatedly. The sensorgrams obtained as measurement results were analyzed by the 1:1 Langmuir binding model using the BIACORE® Evaluation Software to calculate the binding rate constant ka (L/mol/s) and dissociation rate constant kd (1/s), and the dissociation constant KD (mol/L) was calculated from these values. […] Regarding such interactions, KD values were calculated using the following 1:1 binding model described in BIACORE® T100 Software Handbook BR1006-48 Edition AE.
row,KD fold (SG1 = 1),Binder
1,0.49 fold,B11
2,2.57 fold,B12
3,0.55 fold,B13
4,0.15 fold,B14
5,0.2 fold,B15
6,0.15 fold,B16
7,0.09 fold,B17
8,0.09 fold,B18

# Molecular target: T6, cynomolgus monkey FcγRIIIaS extracellular domain with C-terminal His-tag (cynomolgus monkey, UniProt A3RFZ7 21-206 (rhesus entry))
# T6 construct: also called cyno FcgRIIIaS; cynoFcγRIIIaS; not shown: His-tag added to the C-terminus
# Test: SPR (BIACORE), antibody captured, FcgR analyte
# Method: as §1
row,Kd,Binder
1,4.2 µM,B19
